Data from patent EP4682164A1 (Curogen Technology Co., Ltd., dated 2026).

How the values were obtained:
Assay in all cases: ELISA as in Example 8, cytokine coated on plate
[1] = target: T1, human IL-17A (IL-17AA homodimer) (human, UniProt Q16552 20-155, limits assumed)
T1 construct: also called hIL-17A; hIL-17AA

[2] = target: T2, human IL-17F (IL-17FF homodimer) (human, UniProt Q96PD4 31-163)
T2 construct: also called hIL-17F; hIL-17FF
T2 sequence (looked up): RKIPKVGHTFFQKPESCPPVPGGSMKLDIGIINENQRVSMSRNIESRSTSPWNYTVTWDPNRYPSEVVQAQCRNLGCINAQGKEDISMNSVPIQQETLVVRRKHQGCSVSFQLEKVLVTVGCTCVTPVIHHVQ

murine TNFα = target: T3, murine TNFα (mouse, UniProt P06804 80-235)
T3 construct: also called mTNFα; mouse TNFα
T3 sequence (looked up): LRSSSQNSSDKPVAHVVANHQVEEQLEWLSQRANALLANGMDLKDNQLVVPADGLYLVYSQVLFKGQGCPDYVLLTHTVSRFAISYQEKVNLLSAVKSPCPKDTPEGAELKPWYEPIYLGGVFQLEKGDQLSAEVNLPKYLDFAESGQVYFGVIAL

T1 sequence (Q16552 20-155 limits assumed): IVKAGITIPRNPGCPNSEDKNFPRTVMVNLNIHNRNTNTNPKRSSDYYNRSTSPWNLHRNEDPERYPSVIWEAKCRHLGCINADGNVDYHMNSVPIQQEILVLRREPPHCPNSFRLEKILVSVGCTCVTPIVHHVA

B1: IL-17RA/RC-Fc-mTNFR2 (T1-mT4-35) (Fc fusion)
chain: LRLLDHRAPVCSQPGLNCTVKNSDCLDDSWIHPRNLTPSSPKDLQIQLHFAHTQQGDLVPVAHIEWTLQTDASILYLEGAELSVLQLDTNERLCVRFEFLSKLRHHHRRWRFTFSHFVVDPGQEYEVTVHHLPKPIPDGDPNHQSKNFLVPDCEHPRMKVTTPCMSSALPWLNVSADGDNVHLVLNVSEEQHFGLSLYWNQVQGPPKPRWHKNLTGPQIITLNHTDLVPCLCIQVWPLEPDSVRTNICPFREDPRAHQNLWQAARLRLLTLQSWLLDAPCSLPAEAALCWRAPGGDPCQPLVPPLSWENVTVDKVLEFPLLKGHPNLCVQVNSSEKLQLQECLWADSLGPLKDDVLLLETRGPQDNRSLCALEPSGCTSLPSKASTRAARLGEYLLQDLQSGQCLQLWDDDLGALWACPMDKYIHKTGIEGRMDRNTGRGGEEKKKEKEKEEQEERETKTPECPSHTQPLGVFLFPPKPKDTLMISRTPEVTCVVVDVSQEDPEVQFNWYVDGVEVHNAKTKPREEQFNSTYRVVSVLTVLHQDWLNGKEYKCKVSNKGLPSSIEKTISKAKGQPREPQVYTLPPSQEEMTKNQVSLTCLVKGFYPSDIAVEWESNGQPENNYKTTPPVLDSDGSFFLYSRLTVDKSRWQEGNVFSCSVMHEALHNHYTQKSLSLSLGKGGGGSGGGGSGGGGSLEVPAQVVLTPYKPEPGYECQISQEYYDRKAQMCCAKCPPGQYVKHFCNKTSDTVCADCEASMYTQVWNQFRTCLSCSSSCTTDQVEIRACTKQQNRVCACEAGRYCALKTHSGSCRQCMRLSKCGPGFGVASSRAPNGNVLCKACAPGTFSDTTSSTDVCRPHRICSILAIPGNASTDAVCAPESPTLSAIPRTLYVSQPEPTRSQPLDQEPGPSQTPSILTSLGSTPIIEQSTKGG
notes: The hTNFR2 ECD is replaced by the mouse TNFR2 ECD; also called hT1-mT4-35; T1-T4-35
Work on B1 yielded an EC50 [1] of 0.0803 µg/mL, an EC50 [2] of 0.0907 µg/mL and an EC50 (murine TNFα) of 0.071 µg/mL.
